Experimental data from US20210300992A1 (Stanford University, published 2021).

Target: T1, human leukemia inhibitory factor (LIF), soluble (human, UniProt P15018 23-202)
T1 construct: also called human LIF; soluble human LIF
Experiment: yeast surface display, flow cytometry; score from summed fluorescence at 10 pM and 100 pM human LIF, normalized to wild-type and to expression

T1 sequence (P15018 23-202 limits assumed): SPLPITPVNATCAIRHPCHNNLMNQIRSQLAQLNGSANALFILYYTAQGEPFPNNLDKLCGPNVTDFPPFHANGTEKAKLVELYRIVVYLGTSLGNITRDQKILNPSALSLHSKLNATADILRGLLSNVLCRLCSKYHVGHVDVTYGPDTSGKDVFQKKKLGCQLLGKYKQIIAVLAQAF

| Score (normalized binding score) | Binder |
| --- | --- |
| 12.2 | PID (receptor) yeast-displayed receptor fragment: QKKGAPHDLKCVTNNLQVWNCSWKAPSGTGRGTDYEVCIENRSRSCYQLEKTSIKIPALSHGDYEITINSLHDFGSSTSKFTLNEQNVSLIPDTPEILNLSADFSTSTLYLKWNDRGSVFPHRSNVIWEIKVLRKESMELVKLVTHNTTLNGKDTLHHWSWASDMPLECAIHFVEIRCYIDNLHFSGLEEWSDWSPVKNISWIPDSQTKVFPQDKVIPVGSDITFCCVSQEKVLSALIGHTNCPLIHLDGENVAIKIRNVSVSASSGTNVVFITEDDIFGTVIFAGYPPDTPQQLNCETHDLKEIICSWNPGRVTALVGPRATSYTLVESFSGKYVRLKRAEAPTNESYQLLFQMLPNQEIYNFTLNAHNPLGRSQSTILVNITEKVYPHTPTSFKVKDINSTAVKLSWHLPGNFAKINFLCEIEIKKSNSVQEQRNVTIKGVENSSYLVALDKLNPYTLYTFRIRCSTETFWKWSKWSNKKQHLTTEAS |
| 16.9 | PRVAID (receptor) yeast-displayed receptor fragment: QKKGAPHDLKCVTNNLQVWNCSWKAPSGTGRGTDYEVCIENRSRSCYQLEKTSIKIPALSHGDYEITINSLHDFGSSTSKFTLNEQNVSLIPDTPEILNLSADFSTSTLYLKWNDRGSVFPHRSNVIWEIKVLRKESMELVKLVTHNTTLNGKDTLHHWSWASDMPLECAIHFVEIRCYIDNLHFSGLEEWSDWSPVKNISWIPDSQTKVFPQDKVIPVGSDITFCCVSQEKVLSALIGRTNCPLIHLDGENVAIKVRNISASASSGTNVVFITEDDIFGTVIFAGYPPDTPQQLNCETHDLKEIICSWNPGRVTALVGPRATSYTLVESFSGKYVRLKRAEAPTNESYQLLFQMLPNQEIYNFTLNAHNPLGRSQSTILVNITEKVYPHTPTSFKVKDINSTAVKLSWHLPGNFAKINFLCEIEIKKSNSVQEQRNVTIKGVENSSYLVALDKLNPYTLYTFRIRCSTETFWKWSKWSNKKQHLTTEAS |
| 13.4 | PSVID (receptor, 5 mutations, all marked) yeast-displayed receptor fragment: QKKGAPHDLKCVTNNLQVWNCSWKAPSGTGRGTDYEVCIENRSRSCYQLEKTSIKIPALSHGDYEITINSLHDFGSSTSKFTLNEQNVSLIPDTPEILNLSADFSTSTLYLKWNDRGSVFPHRSNVIWEIKVLRKESMELVKLVTHNTTLNGKDTLHHWSWASDMPLECAIHFVEIRCYIDNLHFSGLEEWSDWSPVKNISWIPDSQTKVFPQDKVIPVGSDITFCCVSQEKVLSALIGHTSCPLIHLDGENVAIKIRNVSVSASSGTNVVFITEDDIFGTVIFAGYPPDTPQQLNCETHDLKEIICSWNPGRVTALVGPRATSYTLVESFSGKYVRLKRAEAPTNESYQLLFQMLPNQEIYNFTLNAHNPLGRSQSTILVNITEKVYPHTPTSFKVKDINSTAVKLSWHLPGNFAKINFLCEIEIKKSNSVQEQRNVTIKGVENSSYLVALDKLNPYTLYTFRIRCSTETFWKWSKWSNKKQHLTTEAS |
| 14.4 | VPDAID (receptor, 6 mutations, all marked) yeast-displayed receptor fragment: QKKGAPHDLKCVTNNLQVWNCSWKAPSGTGRGTDYEVCIENRSRSCYQLEKTSIKIPALSHGDYEITINSLHDFGSSTSKFTLNEQNVSLIPDTPEILNLSADFSTSTLYLKWNDRGSVFPHRSNVIWEIKVLRKESMELVKLVTHNTTLNGKDTLHHWSWASDMPLECAIHFVEIRCYIDNLHFSGLEEWSDWSPVKNISWIPDSQTKVFPQDKVVPVGSDITFCCVSQEKVLSALIGHTDCPLIHLDGENVAIKIRNISASASSGTNVVFITEDDIFGTVIFAGYPPDTPQQLNCETHDLKEIICSWNPGRVTALVGPRATSYTLVESFSGKYVRLKRAEAPTNESYQLLFQMLPNQEIYNFTLNAHNPLGRSQSTILVNITEKVYPHTPTSFKVKDINSTAVKLSWHLPGNFAKINFLCEIEIKKSNSVQEQRNVTIKGVENSSYLVALDKLNPYTLYTFRIRCSTETFWKWSKWSNKKQHLTTEAS |

The next lines start with the binder.

| Binder | Score (normalized binding score) |
| --- | --- |
| PAID (receptor, 4 mutations, all marked) yeast-displayed receptor fragment: QKKGAPHDLKCVTNNLQVWNCSWKAPSGTGRGTDYEVCIENRSRSCYQLEKTSIKIPALSHGDYEITINSLHDFGSSTSKFTLNEQNVSLIPDTPEILNLSADFSTSTLYLKWNDRGSVFPHRSNVIWEIKVLRKESMELVKLVTHNTTLNGKDTLHHWSWASDMPLECAIHFVEIRCYIDNLHFSGLEEWSDWSPVKNISWIPDSQTKVFPQDKVIPVGSDITFCCVSQEKVLSALIGHTNCPLIHLDGENVAIKIRNISASASSGTNVVFITEDDIFGTVIFAGYPPDTPQQLNCETHDLKEIICSWNPGRVTALVGPRATSYTLVESFSGKYVRLKRAEAPTNESYQLLFQMLPNQEIYNFTLNAHNPLGRSQSTILVNITEKVYPHTPTSFKVKDINSTAVKLSWHLPGNFAKINFLCEIEIKKSNSVQEQRNVTIKGVENSSYLVALDKLNPYTLYTFRIRCSTETFWKWSKWSNKKQHLTTEAS | 13.3 |
| PVAID (receptor, 5 mutations, all marked) yeast-displayed receptor fragment: QKKGAPHDLKCVTNNLQVWNCSWKAPSGTGRGTDYEVCIENRSRSCYQLEKTSIKIPALSHGDYEITINSLHDFGSSTSKFTLNEQNVSLIPDTPEILNLSADFSTSTLYLKWNDRGSVFPHRSNVIWEIKVLRKESMELVKLVTHNTTLNGKDTLHHWSWASDMPLECAIHFVEIRCYIDNLHFSGLEEWSDWSPVKNISWIPDSQTKVFPQDKVIPVGSDITFCCVSQEKVLSALIGHTNCPLIHLDGENVAIKVRNISASASSGTNVVFITEDDIFGTVIFAGYPPDTPQQLNCETHDLKEIICSWNPGRVTALVGPRATSYTLVESFSGKYVRLKRAEAPTNESYQLLFQMLPNQEIYNFTLNAHNPLGRSQSTILVNITEKVYPHTPTSFKVKDINSTAVKLSWHLPGNFAKINFLCEIEIKKSNSVQEQRNVTIKGVENSSYLVALDKLNPYTLYTFRIRCSTETFWKWSKWSNKKQHLTTEAS | 15.6 |
| VPSID (receptor, 5 mutations, all marked) yeast-displayed receptor fragment: QKKGAPHDLKCVTNNLQVWNCSWKAPSGTGRGTDYEVCIENRSRSCYQLEKTSIKIPALSHGDYEITINSLHDFGSSTSKFTLNEQNVSLIPDTPEILNLSADFSTSTLYLKWNDRGSVFPHRSNVIWEIKVLRKESMELVKLVTHNTTLNGKDTLHHWSWASDMPLECAIHFVEIRCYIDNLHFSGLEEWSDWSPVKNISWIPDSQTKVFPQDKVVPVGSDITFCCVSQEKVLSALIGHTSCPLIHLDGENVAIKIRNISVSASSGTNVVFITEDDIFGTVIFAGYPPDTPQQLNCETHDLKEIICSWNPGRVTALVGPRATSYTLVESFSGKYVRLKRAEAPTNESYQLLFQMLPNQEIYNFTLNAHNPLGRSQSTILVNITEKVYPHTPTSFKVKDINSTAVKLSWHLPGNFAKINFLCEIEIKKSNSVQEQRNVTIKGVENSSYLVALDKLNPYTLYTFRIRCSTETFWKWSKWSNKKQHLTTEAS | 13.2 |

Target: T1, human leukemia inhibitory factor (LIF), …
Experiment: yeast surface display, flow cytometry; Score column of the table of sorted gp130 CBM variants (the filing gives 100 pM and 1 nM human LIF for the gp130 binding scores)

| Binder | Score (binding score) |
| --- | --- |
| wild-type human gp130 CBM domain displayed on the surface of yeast (receptor, also called gp130 wild-type (WT); wild-type gp130) LPPEKPKNLSCIVNEGKKMRCEWDRGRETHLETNFTLKSEWATHKFADCKAKRDTPTSCTVDYSTVYFVNIEVWVEAENALGKVTSDHINFDPVYKVKPNPPHNLSVINSEELSSILKLTWTNPSIKSVIILKYNIQYRTKDASTWSQIPPEDTASTRSSFTVQDLKPFTEYVFRIRCMKEDGKGYWSDWSEEASGITYED | 1.03 |
| EDE (receptor, 3 mutations, all marked) yeast-displayed receptor fragment: LPPEKPKNLSCIVNEGKKMRCEWDRGRETHLETNFTLKSEWATHEFADCKAKRDTPTSCTVDYSTVYFVNIEVWVEAENALGKVTSDHINFDPVDKVKPNPPHNLSVINSEELSSILKLTWTNPSIKSVIILKYNIQYRTKDASTWSQIPPEDTASTRSSFTVQDLKPFTEYVFRIRCMKEDGEGYWSDWSEEASGITYED | 23 |
| ELDSM (receptor, 5 mutations, all marked) yeast-displayed receptor fragment: LPPEKPKNLSCIVNEGKKMRCEWDRGRETHLETNFTLKSEWATHELADCKAKRDTPTSCTVDYSTVYFVNIEVWVEAENALGKVTSDHINFDPVDKVKPSPPHNLSVINSEELSSILKLTWTNPSIKSVMILKYNIQYRTKDASTWSQIPPEDTASTRSSFTVQDLKPFTEYVFRIRCMKEDGKGYWSDWSEEASGITYED | 21.9 |
| ELRDM (receptor, 5 mutations, all marked) yeast-displayed receptor fragment: LPPEKPKNLSCIVNEGKKMRCEWDRGRETHLETNFTLKSEWATHELADCKAKRDTPTSCTVDYSTVYFVNIEVWVEAENALGRVTSDHINFDPVDKVKPNPPHNLSVINSEELSSILKLTWTNPSIKSVMILKYNIQYRTKDASTWSQIPPEDTASTRSSFTVQDLKPFTEYVFRIRCMKEDGKGYWSDWSEEASGITYED | 22.1 |
